The values below come from the Human Domainome abundance scans (Beltran et al. 2025).

± gives the uncertainty stated by the source.

The data set in a line: abundance fitness (aPCA) (normalised: wild type 0, dead -1); higher = more abundant; growth selection in yeast, the domain comes from the species named. The note with it: Homo sapiens.
Substance “Transcriptional activator Myb G197R, P10242” gave an abundance fitness of -0.087 ± 0.06. Substance “Transcriptional activator Myb G197S, P10242” had an abundance fitness of 0.01 ± 0.071. In the case of “Transcriptional activator Myb G197T, P10242” it was -0.15 ± 0.092; in that of “Transcriptional activator Myb G197W, P10242”, -0.229 ± 0.086; in that of “Transcriptional activator Myb G197Y, P10242”, -0.265 ± 0.14. Substance “Transcriptional activator Myb H159R, P10242” yielded an abundance fitness of -0.243 ± 0.18.

Substance “Transcriptional activator Myb H159Y, P10242” gave an abundance fitness of -0.007 ± 0.12. The result for “Transcriptional activator Myb H184A, P10242” reads -0.732 ± 0.07; that for “Transcriptional activator Myb H184C, P10242”, -0.799 ± 0.084; that for “Transcriptional activator Myb H184D, P10242”, -0.82 ± 0.077. For “Transcriptional activator Myb H184E, P10242”, the abundance fitness is -0.783 ± 0.1. In the case of “Transcriptional activator Myb H184F, P10242” it was -0.488 ± 0.075.

Regarding “Transcriptional activator Myb H184G, P10242”, the abundance fitness was -0.855 ± 0.054. “Transcriptional activator Myb H184L, P10242” returned an abundance fitness of -0.623 ± 0.052. In the case of “Transcriptional activator Myb H184M, P10242” it was -0.623 ± 0.061; in that of “Transcriptional activator Myb H184N, P10242”, -0.817 ± 0.067.

For “Transcriptional activator Myb H184P, P10242”, the abundance fitness is -0.81 ± 0.098. The result for “Transcriptional activator Myb H184Q, P10242” reads -0.598 ± 0.08.

In the case of “Transcriptional activator Myb H184R, P10242”, the abundance fitness was -0.055 ± 0.062.

In the case of “Transcriptional activator Myb H184S, P10242”, the abundance fitness was -0.854 ± 0.067.

Take “Transcriptional activator Myb H184T, P10242”: the abundance fitness is -1.07 ± 0.095.

As for “Transcriptional activator Myb H184V, P10242”, the abundance fitness was -0.684 ± 0.048. The result for “Transcriptional activator Myb H184W, P10242” reads -0.298 ± 0.073; that for “Transcriptional activator Myb H184Y, P10242”, -0.001 ± 0.052. For the substance “Transcriptional activator Myb I154A, P10242”, the abundance fitness is -0.215 ± 0.054. In the case of “Transcriptional activator Myb I154C, P10242” it was -0.328 ± 0.093. Take “Transcriptional activator Myb I154D, P10242”: the abundance fitness was -0.5 ± 0.12.

Take “Transcriptional activator Myb I154E, P10242”: the abundance fitness was -0.5 ± 0.076. The result for “Transcriptional activator Myb I154F, P10242” reads -0.914 ± 0.13; that for “Transcriptional activator Myb I154G, P10242”, -0.777 ± 0.057. The result for “Transcriptional activator Myb I154H, P10242” reads -0.59 ± 0.12; that for “Transcriptional activator Myb I154K, P10242”, 0.008 ± 0.095.

On to “Transcriptional activator Myb I154L, P10242”, for which the abundance fitness is -0.187 ± 0.055. The result for “Transcriptional activator Myb I154M, P10242” reads -0.296 ± 0.085; that for “Transcriptional activator Myb I154N, P10242”, -1.14 ± 0.3. Substance “Transcriptional activator Myb I154P, P10242” came in with an abundance fitness of -0.807 ± 0.12.

As to “Transcriptional activator Myb I154Q, P10242”, the abundance fitness was -0.216 ± 0.11. In the case of “Transcriptional activator Myb I154R, P10242” it was -0.23 ± 0.046; in that of “Transcriptional activator Myb I154S, P10242”, -0.527 ± 0.062; in that of “Transcriptional activator Myb I154T, P10242”, -0.185 ± 0.077.

On to “Transcriptional activator Myb I154V, P10242”, for which the abundance fitness is -0.03 ± 0.05.

The substance “Transcriptional activator Myb I154Y, P10242” displayed an abundance fitness of -0.65 ± 0.13. The result for “Transcriptional activator Myb I155A, P10242” reads -0.503 ± 0.065; that for “Transcriptional activator Myb I155C, P10242”, -0.346 ± 0.095; that for “Transcriptional activator Myb I155D, P10242”, -0.779 ± 0.15. Take “Transcriptional activator Myb I155E, P10242”: the abundance fitness is -0.521 ± 0.092. The result for “Transcriptional activator Myb I155F, P10242” reads -0.467 ± 0.14. As for “Transcriptional activator Myb I155G, P10242”, the abundance fitness is -0.894 ± 0.064. With “Transcriptional activator Myb I155H, P10242”, the abundance fitness is -1.04 ± 0.21. With “Transcriptional activator Myb I155K, P10242”, the abundance fitness is -0.736 ± 0.11.

In the case of “Transcriptional activator Myb I155L, P10242”, the abundance fitness is -0.068 ± 0.069. In the case of “Transcriptional activator Myb I155M, P10242” it was -0.178 ± 0.12; in that of “Transcriptional activator Myb I155N, P10242”, -0.645 ± 0.17. Consider “Transcriptional activator Myb I155P, P10242”, for which the abundance fitness is -0.945 ± 0.14. The substance “Transcriptional activator Myb I155Q, P10242” yielded an abundance fitness of -0.786 ± 0.13. In the case of “Transcriptional activator Myb I155R, P10242” it was -0.935 ± 0.067. In the case of “Transcriptional activator Myb I155S, P10242” it was -0.916 ± 0.13; in that of “Transcriptional activator Myb I155T, P10242”, -0.535 ± 0.083; in that of “Transcriptional activator Myb I155V, P10242”, -0.187 ± 0.075. The result for “Transcriptional activator Myb I155Y, P10242” reads -1.21 ± 0.21; that for “Transcriptional activator Myb I169A, P10242”, -0.477 ± 0.1; that for “Transcriptional activator Myb I169C, P10242”, -0.521 ± 0.14. In turn, “Transcriptional activator Myb I169D, P10242” returned an abundance fitness of -0.679 ± 0.13.

The substance “Transcriptional activator Myb I169E, P10242” yielded an abundance fitness of -0.641 ± 0.12. In the case of “Transcriptional activator Myb I169F, P10242” it was -0.516 ± 0.12; in that of “Transcriptional activator Myb I169G, P10242”, -0.681 ± 0.071; in that of “Transcriptional activator Myb I169H, P10242”, -0.799 ± 0.22. On to “Transcriptional activator Myb I169K, P10242”, for which the abundance fitness was -1.05 ± 0.15. The result for “Transcriptional activator Myb I169L, P10242” reads -0.427 ± 0.086; that for “Transcriptional activator Myb I169M, P10242”, -0.18 ± 0.093; that for “Transcriptional activator Myb I169N, P10242”, -0.91 ± 0.14. With “Transcriptional activator Myb I169P, P10242”, the abundance fitness was -0.734 ± 0.12. The result for “Transcriptional activator Myb I169Q, P10242” reads -0.677 ± 0.16; that for “Transcriptional activator Myb I169R, P10242”, -0.784 ± 0.071. The result for “Transcriptional activator Myb I169S, P10242” reads -0.642 ± 0.076; that for “Transcriptional activator Myb I169T, P10242”, -0.567 ± 0.11. In the case of “Transcriptional activator Myb I169V, P10242” it was -0.343 ± 0.094; in that of “Transcriptional activator Myb I169W, P10242”, -1.08 ± 0.18; in that of “Transcriptional activator Myb I169Y, P10242”, -0.147 ± 0.097. Consider “Transcriptional activator Myb I181A, P10242”, for which the abundance fitness is -0.569 ± 0.084. In the case of “Transcriptional activator Myb I181D, P10242” it was -1 ± 0.17; in that of “Transcriptional activator Myb I181E, P10242”, -0.64 ± 0.11.

Take “Transcriptional activator Myb I181F, P10242”: the abundance fitness was -1.16 ± 0.38. “Transcriptional activator Myb I181G, P10242” came in with an abundance fitness of -1.01 ± 0.07. In the case of “Transcriptional activator Myb I181H, P10242” it was -1.17 ± 0.25; in that of “Transcriptional activator Myb I181K, P10242”, -1.34 ± 0.35; in that of “Transcriptional activator Myb I181L, P10242”, -0.365 ± 0.094. Take “Transcriptional activator Myb I181N, P10242”: the abundance fitness was -0.658 ± 0.35. The result for “Transcriptional activator Myb I181P, P10242” reads -0.881 ± 0.25; that for “Transcriptional activator Myb I181Q, P10242”, -0.756 ± 0.13. The result for “Transcriptional activator Myb I181R, P10242” reads -0.933 ± 0.081; that for “Transcriptional activator Myb I181S, P10242”, -0.694 ± 0.086. Regarding “Transcriptional activator Myb I181T, P10242”, the abundance fitness was -0.278 ± 0.094.

“Transcriptional activator Myb I181V, P10242”: the abundance fitness is -0.036 ± 0.07.

Turning to “Transcriptional activator Myb I181W, P10242”, the abundance fitness was -1.26 ± 0.2.
